Results on 8 molecules are retold here after paper PMC3691326, “Structure of the Human Telomeric Stn1-Ten1 Capping Complex” (PLoS ONE, 2013).

Substitutions are numbered along the chain they refer to. Names and notes keep the numbering of the source.

By Kd is commonly meant the concentration at which binding is half-saturated.

For series [1], the target named is T1, human Stn1, full length, wild type (human, UniProt Q9H668 1-368).
T1 construct: human Stn1 (hStn1), subunit of the human CST complex, full length; The methods describe the his-MBP tag for hStn1N only and say that full-length hStn1 was overexpressed and purified by the same procedure; also called hStn1; hStn1(WT); not shown: His (by 'the same procedure' as hStn1N), N-terminal, cleaved; MBP (by 'the same procedure' as hStn1N), N-terminal, cleaved
T1 sequence (looked up): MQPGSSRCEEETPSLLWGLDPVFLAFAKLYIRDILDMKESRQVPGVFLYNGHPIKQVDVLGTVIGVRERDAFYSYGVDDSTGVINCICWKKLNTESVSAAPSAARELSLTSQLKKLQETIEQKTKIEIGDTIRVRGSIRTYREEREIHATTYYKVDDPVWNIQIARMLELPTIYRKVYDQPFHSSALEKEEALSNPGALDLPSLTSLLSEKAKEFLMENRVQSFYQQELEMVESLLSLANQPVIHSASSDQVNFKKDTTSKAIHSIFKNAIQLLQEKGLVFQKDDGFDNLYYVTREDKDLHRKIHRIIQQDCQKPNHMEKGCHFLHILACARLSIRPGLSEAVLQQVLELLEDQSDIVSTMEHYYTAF
Kind of series: ITC; MicroCal iTC200; hTen1 at 125 µM injected into the cell with hStn1 at 12 µM; 20°C; 300 mM KCl, 25 mM Tris-HCl pH 7.5, 1 mM DTT, 5% glycerol; 2.47 µL injections. Particulars: both partners purified. On the technique in general: In ITC the heat of successive injections is recorded.

A further series deals with T2, hStn1 (Homo sapiens, UniProt Q9H668 1-368).
T2 sequence: T1 sequence (looked up)
The series can be described thus: fluorescence polarization; FP: 100 mM NaCl, 5 mM MgCl2, 1 mM DTT, 5% glycerol, 1 mg/mL BSA, 2.5 nM 6-FAM DNA, room temperature; pH not stated. Particulars: protein: recombinant; tags: none stated after TEV cleavage (his-MBP fusion removed); single strand. Background: Polarisation of emitted light reports the rotation of a fluorescent probe.

For a further series, the target named is T3, hTen1 (Homo sapiens, UniProt Q86WV5 1-123).
T3 sequence: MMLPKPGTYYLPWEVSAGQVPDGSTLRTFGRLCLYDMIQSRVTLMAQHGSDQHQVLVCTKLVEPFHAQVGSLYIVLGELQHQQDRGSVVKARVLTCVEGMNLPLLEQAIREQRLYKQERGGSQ
Kind of series: fluorescence polarization; not detected; FP: 100 mM NaCl, 5 mM MgCl2, 1 mM DTT, 5% glycerol, 1 mg/mL BSA, 2.5 nM 6-FAM DNA, room temperature; pH not stated. Particulars: protein: recombinant; single strand.

B1: human Ten1, full length, wild type (natural protein, UniProt Q86WV5 1-123, looked up)
chain: T3 sequence
notes: human Ten1 (hTen1), subunit of the human CST complex, full length; Purification is described only for the complex with hStn1N (cells mixed before lysis; tags cleaved by TEV); also called hTen1; hTen1(WT); source: E. coli BL21-CodonPlus(DE3) RIPL, purified; not shown: His, N-terminal, cleaved
For the molecule B1, the equilibrium dissociation constant (Kd) in series [1] turned out to be 0.0063 µM.

B2: human Ten1 (R27Q), full length (natural protein, UniProt Q86WV5 1-123, looked up)
chain: T3 sequence with R27Q
notes: human Ten1, full length, with R27Q; also called hTen1(R27Q); source: purified (pure, homogeneous)
As for B2, the Kd in series [1] was determined as 0.033 µM.

B3: human Ten1 (R119Q), full length (natural protein, UniProt Q86WV5 1-123, looked up)
chain: T3 sequence with R119Q
notes: human Ten1, full length, with R119Q; also called hTen1(R119Q); source: purified (pure, homogeneous)
The molecule B3 had a Kd in series [1] of 0.013 µM.

B4: human Ten1 (Y115A), full length (natural protein, UniProt Q86WV5 1-123, looked up)
chain: T3 sequence with Y115A
notes: human Ten1, full length, with Y115A; also called hTen1(Y115A); source: purified (pure, homogeneous)
Molecule B4 gave an equilibrium dissociation constant (Kd) in series [1] of 0.014 µM.

Consider TTAGGGTTAGGG (ssDNA) [tel12], for which the Kd with hStn1 was roughly 1 µM.

For GTTACGAAATACGGACAC (ssDNA) [rand18], the Kd with hStn1 is roughly 0.2 µM.

As to TTAGGGTTAGGGTTAGGGTTAGGGTTAGGG (ssDNA) [tel30], in the series with hTen1, the binding result is given as “no binding”.

With TTAGGGTTAGGGTTAGGG (ssDNA) [tel18], in the series with hStn1, the Kd was roughly 0.2 µM.
